{"source": "IntAct's records for PubMed 29892012", "parents": {"B1": {"name": "Cysteine/serine-rich nuclear protein 2 (Homo sapiens), Q9H175 (parent)", "chain": "MDAFTGSGLKRKFDDVDVGSSVSNSDDEISSSDSADSCDSLNPPTTASFTPTSILKRQKQLRRKNVRFDQVTVYYFARRQGFTSVPSQGGSSLGMAQRHNSVRSYTLCEFAQEQEVNHREILREHLKEEKLHAKKMKLTKNGTVESVEADGLTLDDVSDEDIDVENVEVDDYFFLQPLPTKRRRALLRASGVHRIDAEEKQELRAIRLSREECGCDCRLYCDPEACACSQAGIKCQVDRMSFPCGCSRDGCGNMAGRIEFNPIRVRTHYLHTIMKLELESKRQVSRPAAPDEEPSPTASCSLTGAQGSETQDFQEFIAENETAVMHLQSAEELERLKAEEDSSGSSASLDSSIESLGVCILEEPLAVPEELCPGLTAPILIQAQLPPGSSVLCFTENSDHPTASTVNSPSYLNSGPLVYYQVEQRPVLGVKGEPGTEEGSASFPKEKDLNVFSLPVTSLVACSSTDPAALCKSEVGKTPTLEALLPEDCNPEEPENEDFHPSWSPSSLPFRTDNEEGCGMVKTSQQNEDRPPEDSSLELPLAV"}, "B2": {"name": "Serine hydroxymethyltransferase, mitochondrial (Homo sapiens), P34897 (parent)", "chain": "MLYFSLFWAARPLQRCGQLVRMAIRAQHSNAAQTQTGEANRGWTGQESLSDSDPEMWELLQREKDRQCRGLELIASENFCSRAALEALGSCLNNKYSEGYPGKRYYGGAEVVDEIELLCQRRALEAFDLDPAQWGVNVQPYSGSPANLAVYTALLQPHDRIMGLDLPDGGHLTHGYMSDVKRISATSIFFESMPYKLNPKTGLIDYNQLALTARLFRPRLIIAGTSAYARLIDYARMREVCDEVKAHLLADMAHISGLVAAKVIPSPFKHADIVTTTTHKTLRGARSGLIFYRKGVKAVDPKTGREIPYTFEDRINFAVFPSLQGGPHNHAIAAVAVALKQACTPMFREYSLQVLKNARAMADALLERGYSLVSGGTDNHLVLVDLRPKGLDGARAERVLELVSITANKNTCPGDRSAITPGGLRLGAPALTSRQFREDDFRRVVDFIDEGVNIGLEVKSKTAKLQDFKSFLLKDSETSQRLANLRQRVEQFARAFPMPGFDEH", "partner": "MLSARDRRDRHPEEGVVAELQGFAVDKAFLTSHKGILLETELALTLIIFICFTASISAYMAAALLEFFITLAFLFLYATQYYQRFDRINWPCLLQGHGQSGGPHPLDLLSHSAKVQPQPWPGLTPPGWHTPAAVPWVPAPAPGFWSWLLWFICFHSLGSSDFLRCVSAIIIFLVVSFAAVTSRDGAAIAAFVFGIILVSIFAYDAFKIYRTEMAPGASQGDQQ"}, "B3": {"name": "Ligand of Numb protein X 2 (Homo sapiens), Q8N448 (parent)", "chain": "MGTTSDEMVSVEQTSSSSLNPLCFECGQQHWTRENHLYNYQNEVDDDLVCHICLQPLLQPLDTPCGHTFCYKCLRNFLQEKDFCPLDRKRLHFKLCKKSSILVHKLLDKLLVLCPFSSVCKDVMQRCDLEAHLKNRCPGASHRRVALERRKTSRTQAEIENENGPTLLDPAGTLSPEADCLGTGAVPVERHLTSASLSTWSEEPGLDNPAFEESAGADTTQQPLSLPEGEITTIEIHRSNPYIQLGISIVGGNETPLINIVIQEVYRDGVIARDGRLLAGDQILQVNNYNISNVSHNYARAVLSQPCNTLHLTVLRERRFGNRAHNHSDSNSPREEIFQVALHKRDSGEQLGIKLVRRTDEPGVFILDLLEGGLAAQDGRLSSNDRVLAINGHDLKYGTPELAAQIIQASGERVNLTIARPGKPQPGNTIREAGNHSSSSQHHTPPPYYSRPSSHKDLTQCVTCQEKHITVKKEPHESLGMTVAGGRGSKSGELPIFVTSVPPHGCLARDGRIKRGDVLLNINGIDLTNLSHSEAVAMLKASAASPAVALKALEVQIVEEATQNAEEQPSTFSENEYDASWSPSWVMWLGLPSTLHSCHDIVLRRSYLGSWGFSIVGGYEENHTNQPFFIKTIVLGTPAYYDGRLKCGDMIVAVNGLSTVGMSHSALVPMLKEQRNKVTLTVICWPGSLV", "partner": "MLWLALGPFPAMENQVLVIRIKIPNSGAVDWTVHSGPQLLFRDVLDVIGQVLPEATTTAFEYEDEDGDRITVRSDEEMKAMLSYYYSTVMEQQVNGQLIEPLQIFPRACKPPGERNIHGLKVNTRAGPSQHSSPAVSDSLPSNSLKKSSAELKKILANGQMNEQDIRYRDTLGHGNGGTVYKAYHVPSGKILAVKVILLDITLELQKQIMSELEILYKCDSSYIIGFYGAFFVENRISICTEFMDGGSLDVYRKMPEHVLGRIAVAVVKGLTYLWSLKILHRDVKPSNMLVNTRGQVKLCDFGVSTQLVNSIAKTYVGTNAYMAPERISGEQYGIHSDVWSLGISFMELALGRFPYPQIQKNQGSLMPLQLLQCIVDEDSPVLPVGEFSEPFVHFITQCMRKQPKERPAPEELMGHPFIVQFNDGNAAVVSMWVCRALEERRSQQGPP"}, "B4": {"name": "Ligand of Numb protein X 2 (Homo sapiens), Q8N448 (parent)", "chain": "B3 chain"}, "B5": {"name": "Ligand of Numb protein X 2 (Homo sapiens), Q8N448 (parent)", "chain": "B3 chain", "partner": "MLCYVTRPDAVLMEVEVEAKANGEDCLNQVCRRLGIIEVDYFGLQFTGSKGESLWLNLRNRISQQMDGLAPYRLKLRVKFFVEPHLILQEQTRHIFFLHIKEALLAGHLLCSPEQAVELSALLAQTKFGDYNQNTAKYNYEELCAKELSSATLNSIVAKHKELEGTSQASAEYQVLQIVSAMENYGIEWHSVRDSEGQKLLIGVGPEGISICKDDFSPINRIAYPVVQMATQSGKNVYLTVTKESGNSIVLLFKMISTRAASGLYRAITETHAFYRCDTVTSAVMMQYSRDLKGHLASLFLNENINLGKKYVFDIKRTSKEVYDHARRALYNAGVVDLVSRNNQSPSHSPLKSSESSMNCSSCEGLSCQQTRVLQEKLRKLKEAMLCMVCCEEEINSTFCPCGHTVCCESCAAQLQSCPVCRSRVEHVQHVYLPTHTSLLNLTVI"}}}
{"variants_of": "B1", "conditions": "with pp1g_human PPP1CC"}
{"variant": "Q382E", "effect of a mutation on the interaction": "with no effect"}
{"variants_of": "B2", "conditions": "with cklf5_human CMTM5, Q96DZ9"}
{"variant": "V112M", "effect of a mutation on the interaction": "disrupting interaction strength"}
{"variants_of": "B3", "conditions": "with mp2k5_human MAP2K5, Q13163"}
{"variant": "P669A", "effect of a mutation on the interaction": "with no effect"}
{"variants_of": "B4", "conditions": "with at2l2_human PHYKPL"}
{"variant": "P669A", "effect of a mutation on the interaction": "with no effect"}
{"variants_of": "B4", "conditions": "with ip6k2_human IP6K2, Q9UHH9"}
{"variant": "P669A", "effect of a mutation on the interaction": "with no effect"}
{"variants_of": "B4", "conditions": "with atpb_human ATP5F1B"}
{"variant": "P669A", "effect of a mutation on the interaction": "with no effect"}
{"variants_of": "B4", "conditions": "with optn_human OPTN"}
{"variant": "P669A", "effect of a mutation on the interaction": "with no effect"}
{"variants_of": "B4", "conditions": "with tbb5_human TUBB"}
{"variant": "P669A", "effect of a mutation on the interaction": "with no effect"}
{"variants_of": "B4", "conditions": "with mk09_human MAPK9, P45984"}
{"variant": "P669A", "effect of a mutation on the interaction": "with no effect"}
{"variants_of": "B4", "conditions": "with ptcd3_human PTCD3, Q96EY7"}
{"variant": "P669A", "effect of a mutation on the interaction": "with no effect"}
{"variants_of": "B4", "conditions": "with lrc8e_human LRRC8E"}
{"variant": "P669A", "effect of a mutation on the interaction": "with no effect"}
{"variants_of": "B5", "conditions": "with mylip_human MYLIP"}
{"variant": "P669A", "effect of a mutation on the interaction": "with no effect"}
